Reference: the supplement of paper PMC12764529
± gives the half width of the 95% confidence interval.

What was measured:
[1] = folding stability dG unfold from chymotrypsin proteolysis; higher = more stable
Description: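 Folding stability of de novo designed mini-proteins (<80 aa, no Cys; designed by TrROS, TrMRF, ProteinMPNN and the joint model) was measured by cDNA display proteolysis with trypsin and chymotrypsin. Each protease was used at 11 concentrations in a threefold dilution series plus a no-protease condition. K50 was inferred by Bayesian fitting of sequencing counts, and dG unfold was derived against a sequence-predicted unfolded-state K50 (Tsuboyama et al. method). Sequences shown include variable-length N-terminal GS-type padding (SAGGSAGG...) inside a display construct carrying a PA tag. Rows were kept only if the AF2 dimer inter-PAE was >15, to exclude likely homo-oligomers.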

[2] = folding stability dG unfold (combined trypsin and chymotrypsin); higher = more stable
Method in brief: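 Designed mini-proteins (under 80 residues, no cysteine) in a PA-tagged cDNA display construct were digested with trypsin and chymotrypsin. Each protease was used at 11 concentrations (threefold dilutions) plus a no-protease condition, followed by sequencing. K50 was inferred by Bayesian fitting of sequencing counts, and unfolding free energy was derived against a sequence-predicted unfolded-state K50 and a shared folded-state K50, per protease or combined. Only designs with AlphaFold2 dimer inter-PAE above 15 were kept.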

Sequence | folding stability dG unfold [1] [kcal/mol] | folding stability dG unfold [2] [kcal/mol]
SAGGSAGGSGTSTSSSGPSTVTITLHTDSPVTLTVPPETTEELAAELKARGYNLEVKVTPAPASAGGSAGGS [r20_124_JUSTAS] | 0.161 ± 0.12 | -0.195 ± 0.11
SAGGGSTVVTTTEPAAAVRARVEAEARARGVALDVDVTVEPTPEGPVVTFDVRVDPGAPAVPAANRVSAGGS [r16_262_JUSTAS] | 0.0214 ± 0.23 | -0.629 ± 0.25
SAGGSAGGSAGGMTETKVYPKSSEGGKLTTITTTTTPLKDPKGNWSTKTTTTTSVSPATSAGGSAGGSAGGS [r10_496_JUSTAS] | 0.131 ± 0.15 | -0.486 ± 0.27
SAGGGNPPVLKIELTKTYHPPDGTKVELYRVEHPVEPREIYIVKTYPDDGAEEVKIVKEEELKEALKSAGGS [r8_421_JUSTAS] | 0.771 ± 0.36 | < -1
SAGKTVKVTVEKEVTLENGNKVTVKVEKTVELKPPPPKKITLSPEEIEEIDKETGEIRNKKTNKVFKIKSAG [r5_807_TrROS_Hall] | -0.0446 ± 0.37 | < -1
SAGGSAGGSAGGAVERFPGPATVTALPDGRRLVTTTDPSGRPTLTLLEVETPERVTAHPASAGGSAGGSAGG [r7_423_JUSTAS] | 0.286 ± 0.038 | -0.663 ± 0.2
SAGGSSLDDPSLLPGVTLTVTLPETGEVLRVPSSEVVSGPLSEAAARVRAEVAAAHPGRPWEVRAESAGGSA [r2_392_JUSTAS] | -0.728 ± 0.42 | < -1
SAGGSAEKPPIKIEIDTETDPGNGMYEVSIPIRQKNGKPKGTIDIPFNTPQQAEDWLEDLGFDKIESAGGSA [r15_127_TrROS] | -0.865 ± 0.61 | < -1
SAGGSAGGSAGGSHPVKITEITEFNPGDNRMRIDIKHPNGGKKEIVVPGMPVEEILNAISAGGSAGGSAGGS [r4_357_TrROS] | 0.0992 ± 0.031 | -0.635 ± 0.21
SAGGSAGGSAGGGPEVEVETETLPTADGRPVRLVRARVPTREYLFLVSPDGEILRRIPVSAGGSAGGSAGGS [r10_97_TrMRF] | 0.331 ± 0.16 | -0.331 ± 0.22
SAGDKYRIKMTNPNGKKIEFEIPPNGYIKVRIRNPNNEHEMTIPIPPGETIEEALDNFPPYKISEIEPVSAG [r5_259_TrROS] | 0.795 ± 0.1 | 0.328 ± 0.082
SAGGSAGGSAGGMLSPEVGLPEVPVTLTDPTNDKVYTITVPPDTNPAEVAAALGVALLLSAGGSAGGSAGGS [r10_202_JUSTAS] | 0.699 ± 0.23 | -0.237 ± 0.38
SAGSLPPDVTVPIPRRVRLSESDPALLEAARNGEPVYEELPGDVRVTVELRPLPPDELEVTERVYFPAGSAG [r5_223_JUSTAS] | 0.444 ± 0.12 | -0.000299 ± 0.27
SAGGGRMIKLTFKSGETKTIPLSSDYPDAKVEVSEKDDKLYITVTYPNGEKITYEFPLSEVESIEILSAGGS [r16_658_JUSTAS] | 4.526 ± 0.042 | 4.7 ± 0.1
SAGGSAGGSAGGMSVSPEGYSVSVTGSGPRGVPVPASNAAEQRAALAAQPDVSSVTVTASSAGGSAGGSAGG [r11_587_JUSTAS] | 0.36 ± 0.05 | -0.883 ± 0.18
SAGGSAGGSAGGMVPGETVTITIPVPPTGKEVPVEISTTLPPEEREALAEAKAAELEAALSAGGSAGGSAGG [r7_957_JUSTAS] | 0.602 ± 0.025 | -0.199 ± 0.11
SAGGMMRTVTEPLSPEELEELRKEGWTVLGTEPGKVTVRVPVVPPLSPEEVAQARAAGLSEAEAAAARSAGG [r19_115_JUSTAS] | 0.587 ± 0.14 | 0.0214 ± 0.28
SAGGRVKVEIYNPDSGRPMEIEINPGNGTLEIRNPNNGEPVHEFPIPDIKEIEIPFSPNGILIKIEVDSAGG [r13_720_TrROS] | 0.281 ± 0.043 | -0.137 ± 0.33
SAGGSAGGSAGGSSRVLKGKDTTVVLYPDSVTFYPGSTGTPVVKSISDPEVVEEIKKLLSAGGSAGGSAGGS [r4_353_JUSTAS] | -0.192 ± 0.33 | < -1
SAGGSAGGSAGEWIPADYIRDFARNLGMPGKIDVERKEDGWFTIEIRNNGGPRKIQIPLDSAGGSAGGSAGG [r11_410_TrROS] | 0.00957 ± 0.25 | -0.548 ± 0.38
SAGGSAGGSAGMKTKATFVIDNEEYDATIDPGTPKNSTATVTKPDSTTTITVTNIKLFPESAGGSAGGSAGG [r11_247_JUSTAS] | 0.897 ± 0.062 | 0.346 ± 0.11
SAGGSAGGSAGPPPMEPIFTFTNPKEPVTIYRSKDPGNYHIYDPPNGKERTIPPNDPNFFSAGGSAGGSAGG [r11_1007_TrROS] | -0.0661 ± 0.55 | < -1
SAGGSAGGSIKITLETETETYLDPEDPNRPVTKVKAVKPTIEVPEENPEKLKELAEKLGLELESAGGSAGGS [r12_249_TrMRF] | 0.723 ± 0.034 | 0.232 ± 0.1
SAGGSAMTTRATATPQPDGTVTVTVEAPGFSRTFTAPPGDLAASLAAVERELPPGEPRVVTSAAAGSAGGSA [r15_925_JUSTAS] | 0.346 ± 0.059 | -0.233 ± 0.067
